Source: paper PMC9122904, “Insights into the client protein release mechanism of the ATP-independent chaperone Spy” (Nature Communications, 2022)

Tests used:
Experiment in all cases: BLI; Octet RED96; client biotinylated and loaded on streptavidin sensors; Spy or Spy variant in solution at 0.25, 0.5, 1, 1.5 and 2 μM; 40 mM HEPES, 150 mM NaCl, pH 7.5; Kd calculated as koff/kon
Conditions in all cases: both partners purified
[1] = target: T1, Spy H65D (UniProt P77754 24-161, H65D)
T1 construct: source: E. coli BL21 (DE3), purified (Ni-NTA, cation exchange, SEC); not shown: His6, N-terminal, cleaved; SUMO, N-terminal, cleaved
T1 sequence (looked up): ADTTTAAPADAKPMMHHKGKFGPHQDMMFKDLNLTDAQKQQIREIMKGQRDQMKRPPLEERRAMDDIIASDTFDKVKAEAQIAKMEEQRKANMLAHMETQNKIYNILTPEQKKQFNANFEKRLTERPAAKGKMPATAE
Procedure, shortened: (§1)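 Biolayer interferometry used an Octet RED96: client proteins biotinylated with EZ-link NHS-biotin (1:1 molar ratio) were loaded on streptavidin sensors, dipped into 40 mM HEPES, 150 mM NaCl, pH 7.5 containing Spy protein at 0.25, 0.5, 1, 1.5 and 2 μM, then moved to Spy-free buffer. Wavelength-shift association and dissociation curves were fitted in SigmaPlot 12.0, giving observed association rate and koff. kon came from observed rate versus Spy concentration; Kd was koff/kon.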

[2] = target: T2, Spy D26K K75D (UniProt P77754 24-161, D26K | K75D)
T2 construct: source: E. coli BL21 (DE3), purified (Ni-NTA, cation exchange, SEC); not shown: His6, N-terminal, cleaved; SUMO, N-terminal, cleaved
T2 sequence (looked up): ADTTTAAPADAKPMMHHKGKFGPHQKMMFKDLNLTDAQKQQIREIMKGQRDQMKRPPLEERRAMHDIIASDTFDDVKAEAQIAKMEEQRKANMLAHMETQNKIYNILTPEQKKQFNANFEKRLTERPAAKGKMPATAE
Procedure, shortened: as §1

[3] = target: T3, Spy_(R50D) (UniProt P77754 24-161, R50D)
T3 construct: source: E. coli BL21 (DE3), purified (Ni-NTA, cation exchange, SEC); not shown: His6, N-terminal, cleaved; SUMO, N-terminal, cleaved
T3 sequence (looked up): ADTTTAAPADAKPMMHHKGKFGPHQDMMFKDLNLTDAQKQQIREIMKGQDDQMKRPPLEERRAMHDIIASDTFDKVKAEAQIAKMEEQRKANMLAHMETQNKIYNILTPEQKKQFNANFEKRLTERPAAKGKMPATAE
Procedure, shortened: as §1

[4] = target: T4, Spy D26K H65D (UniProt P77754 24-161, D26K | H65D)
T4 construct: source: E. coli BL21 (DE3), purified (Ni-NTA, cation exchange, SEC); not shown: His6, N-terminal, cleaved; SUMO, N-terminal, cleaved
T4 sequence (looked up): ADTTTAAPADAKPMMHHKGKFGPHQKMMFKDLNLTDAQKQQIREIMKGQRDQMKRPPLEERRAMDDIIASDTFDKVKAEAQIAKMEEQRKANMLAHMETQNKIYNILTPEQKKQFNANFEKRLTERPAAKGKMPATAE
Procedure, shortened: as §1

[5] = target: T5, Spy_(K75D) (UniProt P77754 24-161, K75D)
T5 construct: also called control protein; source: E. coli BL21 (DE3), purified (Ni-NTA, cation exchange, SEC); not shown: His6, N-terminal, cleaved; SUMO, N-terminal, cleaved
T5 sequence (looked up): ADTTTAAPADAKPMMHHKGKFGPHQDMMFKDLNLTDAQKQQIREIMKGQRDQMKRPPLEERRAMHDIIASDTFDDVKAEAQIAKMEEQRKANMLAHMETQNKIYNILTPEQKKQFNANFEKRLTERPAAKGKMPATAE
Procedure, shortened: as §1

[6] = target: T6, Spy D26K K121D R122D (UniProt P77754 24-161, D26K | K121D | R122D)
T6 construct: source: E. coli BL21 (DE3), purified (Ni-NTA, cation exchange, SEC); not shown: His6, N-terminal, cleaved; SUMO, N-terminal, cleaved
T6 sequence (looked up): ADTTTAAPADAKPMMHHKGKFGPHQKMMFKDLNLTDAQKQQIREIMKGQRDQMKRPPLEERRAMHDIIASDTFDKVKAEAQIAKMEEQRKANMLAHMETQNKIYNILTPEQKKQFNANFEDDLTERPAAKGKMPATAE
Procedure, shortened: as §1

[7] = target: T7, Spy_(K121D R122D) (UniProt P77754 24-161, K121D | R122D)
T7 construct: source: E. coli BL21 (DE3), purified (Ni-NTA, cation exchange, SEC); not shown: His6, N-terminal, cleaved; SUMO, N-terminal, cleaved
T7 sequence (looked up): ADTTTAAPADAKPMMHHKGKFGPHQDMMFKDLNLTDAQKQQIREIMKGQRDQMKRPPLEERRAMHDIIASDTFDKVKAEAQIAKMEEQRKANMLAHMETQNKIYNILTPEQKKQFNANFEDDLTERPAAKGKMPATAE
Procedure, shortened: as §1

[8] = target: T8, Spy_(29-124) H96D (UniProt P77754 52-147, H96D)
T8 construct: source: E. coli BL21 (DE3), purified (Ni-NTA, cation exchange, SEC); not shown: His6, N-terminal, cleaved; SUMO, N-terminal, cleaved
T8 sequence (looked up): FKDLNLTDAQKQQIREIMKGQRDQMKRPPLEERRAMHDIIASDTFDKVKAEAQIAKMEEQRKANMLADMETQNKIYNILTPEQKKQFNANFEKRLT

B1: Im7 H40W L53A I54A (natural protein)
chain: MELKNSISDYTEAEFVQLLKEIEKENVAATDDVLDVLLEWFVKITEHPDGTDAAYYPSDNRDDSPEGIVKEIKEWRAANGKPGFKQG
modifications: biotin (EZ-link NHS-biotin, 1:1 molar ratio of biotin to protein)
notes: Im7 (colicin E7 immunity protein) with H40W L53A I54A; Spy was made with an N-terminal His6-SUMO tag that was cleaved; also called Im7AAW; partially folded client; source: purified by a similar procedure to Spy
- koff [1]: 0.427 s⁻¹
- koff [2]: 0.0595 s⁻¹
- koff [3]: 0.543 s⁻¹
- koff [4]: 0.284 s⁻¹
- koff [5]: 0.183 s⁻¹
- koff [6]: 0.202 s⁻¹
- koff [7]: 0.46 s⁻¹
- koff [8]: 0.234 s⁻¹
